T1: recombinant cynomolgus monkey CTLA4 protein (extracellular domain) (cynomolgus monkey, UniProt G7PL88 36-161)
T1 sequence: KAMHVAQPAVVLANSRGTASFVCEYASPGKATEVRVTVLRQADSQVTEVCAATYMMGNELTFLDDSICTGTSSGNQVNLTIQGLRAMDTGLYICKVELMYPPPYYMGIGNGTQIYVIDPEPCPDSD

T2: recombinant human CTLA4 protein (extracellular domain) (human, UniProt P16410 36-161)
T2 construct: extracellular domain
T2 sequence (looked up): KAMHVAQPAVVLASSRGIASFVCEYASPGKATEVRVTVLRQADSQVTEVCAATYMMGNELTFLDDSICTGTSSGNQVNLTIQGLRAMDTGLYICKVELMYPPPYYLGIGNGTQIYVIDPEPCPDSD

T3: recombinant rat CTLA4 protein (extracellular domain) (rat, UniProt Q62859 36-161)
T3 sequence: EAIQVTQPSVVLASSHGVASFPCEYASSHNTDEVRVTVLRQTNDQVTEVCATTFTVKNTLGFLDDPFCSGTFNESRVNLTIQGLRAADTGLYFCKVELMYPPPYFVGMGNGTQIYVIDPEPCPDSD

T4: human CTLA4 expressed on cells (human, UniProt P16410 36-223)
T4 sequence (looked up): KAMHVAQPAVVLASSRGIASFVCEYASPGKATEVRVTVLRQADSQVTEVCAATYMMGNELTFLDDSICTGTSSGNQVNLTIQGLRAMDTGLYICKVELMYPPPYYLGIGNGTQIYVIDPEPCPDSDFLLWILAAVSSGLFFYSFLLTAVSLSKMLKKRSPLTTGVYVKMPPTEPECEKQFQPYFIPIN

B1: TY22404 (masked, masking peptide intact) (antibody)
heavy: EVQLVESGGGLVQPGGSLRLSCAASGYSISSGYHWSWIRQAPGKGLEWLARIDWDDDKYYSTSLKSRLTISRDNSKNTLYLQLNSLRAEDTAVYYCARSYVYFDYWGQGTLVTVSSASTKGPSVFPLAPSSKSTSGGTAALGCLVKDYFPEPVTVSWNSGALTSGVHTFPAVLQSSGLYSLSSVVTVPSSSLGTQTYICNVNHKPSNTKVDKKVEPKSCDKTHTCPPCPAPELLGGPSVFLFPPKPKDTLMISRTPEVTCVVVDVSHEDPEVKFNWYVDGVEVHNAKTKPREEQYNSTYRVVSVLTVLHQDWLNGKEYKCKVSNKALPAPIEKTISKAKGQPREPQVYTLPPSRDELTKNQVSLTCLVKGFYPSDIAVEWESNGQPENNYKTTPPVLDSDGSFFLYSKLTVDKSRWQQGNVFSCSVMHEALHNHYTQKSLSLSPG
light: EVGSYPNPSSDCVPYYYACAYSGRSAGGGGTPLGLAGSGGSDIQLTQSPSSLSASVGDRVTITCRASQSVRGRFLAWYQQKPGKAPKLLIYDASNRATGIPSRFSGSGSGTDFTLTISSLQPEDFATYYCQQSSSWPPTFGQGTKVEIKRTVAAPSVFIFPPSDEQLKSGTASVVCLLNNFYPREAKVQWKVDNALQSGNSQESVTEQDSKDSTYSLSSTLTLSKADYEKHKVYACEVTHQGLSSPVTKSFNRGEC
notes: It has the VH and VL of TY21580, with the mask/linker at the N-terminus of the light chain; also called masked TY22404; masking peptide-intact TY22404
B2: activated TY22404 by condition 2 (antibody)
heavy: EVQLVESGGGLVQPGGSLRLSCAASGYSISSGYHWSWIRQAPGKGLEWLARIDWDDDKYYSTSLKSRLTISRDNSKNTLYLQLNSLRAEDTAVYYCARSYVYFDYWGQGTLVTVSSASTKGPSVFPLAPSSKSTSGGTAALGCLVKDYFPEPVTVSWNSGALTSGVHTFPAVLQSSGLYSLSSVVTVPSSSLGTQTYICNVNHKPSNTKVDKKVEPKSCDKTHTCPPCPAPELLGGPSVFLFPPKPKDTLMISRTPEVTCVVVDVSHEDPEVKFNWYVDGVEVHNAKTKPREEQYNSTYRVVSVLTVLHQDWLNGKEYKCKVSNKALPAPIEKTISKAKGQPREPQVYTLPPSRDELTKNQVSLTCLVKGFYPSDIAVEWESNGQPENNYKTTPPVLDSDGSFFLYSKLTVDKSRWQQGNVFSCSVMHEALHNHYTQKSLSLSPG
light: DIQLTQSPSSLSASVGDRVTITCRASQSVRGRFLAWYQQKPGKAPKLLIYDASNRATGIPSRFSGSGSGTDFTLTISSLQPEDFATYYCQQSSSWPPTFGQGTKVEIKRTVAAPSVFIFPPSDEQLKSGTASVVCLLNNFYPREAKVQWKVDNALQSGNSQESVTEQDSKDSTYSLSSTLTLSKADYEKHKVYACEVTHQGLSSPVTKSFNRGEC
notes: IgG1; also called cleaved TY22404; not shown: remnant of the cleavable linker left after cleavage
B3: activated TY22404 by condition 1 (antibody)
heavy: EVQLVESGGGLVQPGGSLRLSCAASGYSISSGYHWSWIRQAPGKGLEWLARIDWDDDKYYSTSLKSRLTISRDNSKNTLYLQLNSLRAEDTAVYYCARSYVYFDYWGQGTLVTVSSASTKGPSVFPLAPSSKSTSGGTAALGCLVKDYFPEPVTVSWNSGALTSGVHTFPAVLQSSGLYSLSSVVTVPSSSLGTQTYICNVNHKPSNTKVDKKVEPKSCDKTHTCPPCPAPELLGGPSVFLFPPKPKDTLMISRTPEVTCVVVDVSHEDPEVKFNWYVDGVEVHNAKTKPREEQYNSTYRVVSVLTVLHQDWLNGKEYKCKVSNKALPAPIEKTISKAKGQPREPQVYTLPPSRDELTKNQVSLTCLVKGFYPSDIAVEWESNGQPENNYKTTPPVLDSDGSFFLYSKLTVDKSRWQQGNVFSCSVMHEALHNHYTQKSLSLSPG
light: DIQLTQSPSSLSASVGDRVTITCRASQSVRGRFLAWYQQKPGKAPKLLIYDASNRATGIPSRFSGSGSGTDFTLTISSLQPEDFATYYCQQSSSWPPTFGQGTKVEIKRTVAAPSVFIFPPSDEQLKSGTASVVCLLNNFYPREAKVQWKVDNALQSGNSQESVTEQDSKDSTYSLSSTLTLSKADYEKHKVYACEVTHQGLSSPVTKSFNRGEC
notes: as for B2

How the values were obtained:
[1] = molecular target: T1, recombinant cynomolgus monkey CTLA4 …; assay: ELISA, recombinant cynomolgus monkey CTLA4 extracellular domain coated on the plate, captured antibody detected with HRP-labeled anti-human IgG (Fab specific), absorbance at 450 nm
[2] = molecular target: T2, recombinant human CTLA4 protein …; assay: ELISA, recombinant human CTLA4 extracellular domain coated on the plate, captured antibody detected with HRP-labeled anti-human IgG (Fab specific), absorbance at 450 nm
[3] = molecular target: T5, recombinant mouse CTLA4 protein (extracellular domain) (mouse, UniProt P09793 36-161); assay: ELISA, recombinant mouse CTLA4 extracellular domain coated on the plate, captured antibody detected with HRP-labeled anti-human IgG (Fab specific), absorbance at 450 nm
T5 construct: extracellular domain

[4] = molecular target: T3, recombinant rat CTLA4 protein …; assay: ELISA, recombinant rat CTLA4 extracellular domain coated on the plate, captured antibody detected with HRP-labeled anti-human IgG (Fab specific), absorbance at 450 nm
[5] = molecular target: T3, recombinant rat CTLA4 protein …; assay: ELISA, CTLA4 extracellular domain coated; reference masked TY22404
[6] = molecular target: T1, recombinant cynomolgus monkey CTLA4 …; assay: as above
[7] = molecular target: T2, recombinant human CTLA4 protein …; assay: as above
[8] = molecular target: T5, recombinant mouse CTLA4 protein …; assay: as above
[9] = molecular target: T4, human CTLA4 expressed on cells; assay: cell-based or functional assay
[10] = molecular target: T3, recombinant rat CTLA4 protein …; assay: ELISA, CTLA4 extracellular domain coated, HRP anti-human IgG (Fab specific) detection
[11] = molecular target: T1, recombinant cynomolgus monkey CTLA4 …; assay: as above
[12] = molecular target: T2, recombinant human CTLA4 protein …; assay: as above
[13] = molecular target: T5, recombinant mouse CTLA4 protein …; assay: as above

| Binder | EC50 (read off the curve) [1] [nM] | EC50 (read off the curve) [2] [nM] | EC50 (read off the curve) [3] [nM] | EC50 (read off the curve) [4] [nM] | fold increased affinity compared to masked TY22404 [5] [fold] | fold increased affinity compared to masked TY22404 [6] [fold] | fold increased affinity compared to masked TY22404 [7] [fold] | fold increased affinity compared to masked TY22404 [8] [fold] | EC50 (read off the curve) [9] [nM] | EC50 [10] [nM] | EC50 [11] [nM] | EC50 [12] [nM] | EC50 [13] [nM] |
| --- | --- | --- | --- | --- | --- | --- | --- | --- | --- | --- | --- | --- | --- |
| B1 | ~10 | ~70 | ~100 | ~30 |  |  |  |  |  |  |  |  |  |
| B2 | ~0.3 | ~0.3 | ~0.3 | ~0.3 | > 100 | ~40 | > 250 | > 300 | ~0.7 | ~0.3 | ~0.3 | ~0.3 | ~0.3 |
| B3 | ~0.3 | ~0.3 | ~0.3 | ~0.3 | > 100 | ~40 | > 250 | > 300 |  | ~0.3 | ~0.3 | ~0.3 | ~0.3 |
